Test results as given in IntAct's records for PubMed 26829474.

B1: Aurora kinase B (Homo sapiens), Q96GD4 (parent)
chain: MAQKENSYPWPYGRQTAPSGLSTLPQRVLRKEPVTPSALVLMSRSNVQPTAAPGQKVMENSSGTPDILTRHFTIDDFEIGRPLGKGKFGNVYLAREKKSHFIVALKVLFKSQIEKEGVEHQLRREIEIQAHLHHPNILRLYNYFYDRRRIYLILEYAPRGELYKELQKSCTFDEQRTATIMEELADALMYCHGKKVIHRDIKPENLLLGLKGELKIADFGWSVHAPSLRRKTMCGTLDYLPPEMIEGRMHNEKVDLWCIGVLCYELLVGNPPFESASHNETYRRIVKVDLKFPASVPMGAQDLISKLLRHNPSERLPLAQVSAHPWVRANSRRVLPPSALQSVA

Variants of: B1
Conditions: with 2aaa_human PPP2R1A

Variant	effect of a mutation on the interaction
MAQKENSYPWPYGRQTAPSGLSTLPQRVLRKEPVTPSALVLMSRSNVQPTAAPGQKVMENSSGTPDILTRHFTIDDFEIGRPLGKGKFGNVYLAREKKSHFIVALKVLFKSQIEKEGVEHQLRREIEIQAHLHHPNILRLYNYFYDRRRIYLILEYAPRGELYKELQKSCTFDEQRTATIMEELADALMYCHGKKVIHRDIKPENLLLGLKGELQIADFGWSVHAPSLRRKTMCGTLDYLPPEMIEGRMHNEKVDLWCIGVLCYELLVGNPPFESASHNETYRRIVKVDLKFPASVPMGAQDLISKLLRHNPSERLPLAQVSAHPWVRANSRRVLPPSALQSVA [K215Q]	decreasing interaction strength
